Test results as given in patent US20210388087A1 (Chugai, published 2021).

T1: Human CD3eg linker (human)
T1 construct: Single chain: epsilon and gamma subunits of human CD3 joined by a 29-mer linker, Flag-tag at the C-terminus; also called recombinant human CD3
T1 chain: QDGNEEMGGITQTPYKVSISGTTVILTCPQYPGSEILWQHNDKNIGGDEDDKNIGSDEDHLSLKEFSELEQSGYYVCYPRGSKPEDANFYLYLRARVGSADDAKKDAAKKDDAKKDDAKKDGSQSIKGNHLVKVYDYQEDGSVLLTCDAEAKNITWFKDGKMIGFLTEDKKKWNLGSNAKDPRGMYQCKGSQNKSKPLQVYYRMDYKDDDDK


Target: T1, Human CD3eg linker
Experiment: Biacore SPR, vs template H183/L072

Row | fold change of affinity [fold] | Binder
1 | 1.6 | H183/L072 VH V63L (antibody, name in Kabat numbering, V domains shown) VH: QVQLVESGGGLVQPGRSLRLSCAASGFTFSNAWMHWVRQAPGKGLEWVAQIKDKGNAYAAYYAPSLKGRFTISRDDSKNSIYLQMNSLKTEDTAVYYCHYVHYASASTVLPAFGVDAWGQGTTVTVSS VL: DIVMTQSPLSLPVTPGEPASISCQASQELVHMNRNTYLHWYQQKPGQAPRLLIYKVSNRFPGVPDRFSGSGSGTDFTLKISRVEAEDVGVYYCAQGTSVPFTFGQGTKLEIK
2 | 1.2 | H183/L072 VH V63P (antibody, name in Kabat numbering, V domains shown) VH: QVQLVESGGGLVQPGRSLRLSCAASGFTFSNAWMHWVRQAPGKGLEWVAQIKDKGNAYAAYYAPSPKGRFTISRDDSKNSIYLQMNSLKTEDTAVYYCHYVHYASASTVLPAFGVDAWGQGTTVTVSS VL: DIVMTQSPLSLPVTPGEPASISCQASQELVHMNRNTYLHWYQQKPGQAPRLLIYKVSNRFPGVPDRFSGSGSGTDFTLKISRVEAEDVGVYYCAQGTSVPFTFGQGTKLEIK
3 | 7.5 | H183/L072 VH V95I (antibody, name in Kabat numbering, V domains shown) VH: QVQLVESGGGLVQPGRSLRLSCAASGFTFSNAWMHWVRQAPGKGLEWVAQIKDKGNAYAAYYAPSVKGRFTISRDDSKNSIYLQMNSLKTEDTAVYYCHYIHYASASTVLPAFGVDAWGQGTTVTVSS VL: DIVMTQSPLSLPVTPGEPASISCQASQELVHMNRNTYLHWYQQKPGQAPRLLIYKVSNRFPGVPDRFSGSGSGTDFTLKISRVEAEDVGVYYCAQGTSVPFTFGQGTKLEIK
4 | 0.8 | H183/L072 VH V100iI (antibody, name in Kabat numbering, V domains shown) VH: QVQLVESGGGLVQPGRSLRLSCAASGFTFSNAWMHWVRQAPGKGLEWVAQIKDKGNAYAAYYAPSVKGRFTISRDDSKNSIYLQMNSLKTEDTAVYYCHYVHYASASTVLPAFGIDAWGQGTTVTVSS VL: DIVMTQSPLSLPVTPGEPASISCQASQELVHMNRNTYLHWYQQKPGQAPRLLIYKVSNRFPGVPDRFSGSGSGTDFTLKISRVEAEDVGVYYCAQGTSVPFTFGQGTKLEIK
5 | 1 | H183/L072 VH V100cP (antibody, name in Kabat numbering, V domains shown) VH: QVQLVESGGGLVQPGRSLRLSCAASGFTFSNAWMHWVRQAPGKGLEWVAQIKDKGNAYAAYYAPSVKGRFTISRDDSKNSIYLQMNSLKTEDTAVYYCHYVHYASASTPLPAFGVDAWGQGTTVTVSS VL: DIVMTQSPLSLPVTPGEPASISCQASQELVHMNRNTYLHWYQQKPGQAPRLLIYKVSNRFPGVPDRFSGSGSGTDFTLKISRVEAEDVGVYYCAQGTSVPFTFGQGTKLEIK
6 | 1.4 | H183/L072 VH V63M (antibody, name in Kabat numbering, V domains shown) VH: QVQLVESGGGLVQPGRSLRLSCAASGFTFSNAWMHWVRQAPGKGLEWVAQIKDKGNAYAAYYAPSMKGRFTISRDDSKNSIYLQMNSLKTEDTAVYYCHYVHYASASTVLPAFGVDAWGQGTTVTVSS VL: DIVMTQSPLSLPVTPGEPASISCQASQELVHMNRNTYLHWYQQKPGQAPRLLIYKVSNRFPGVPDRFSGSGSGTDFTLKISRVEAEDVGVYYCAQGTSVPFTFGQGTKLEIK
7 | 1 | H183/L072 VH V100cI (antibody, name in Kabat numbering, V domains shown) VH: QVQLVESGGGLVQPGRSLRLSCAASGFTFSNAWMHWVRQAPGKGLEWVAQIKDKGNAYAAYYAPSVKGRFTISRDDSKNSIYLQMNSLKTEDTAVYYCHYVHYASASTILPAFGVDAWGQGTTVTVSS VL: DIVMTQSPLSLPVTPGEPASISCQASQELVHMNRNTYLHWYQQKPGQAPRLLIYKVSNRFPGVPDRFSGSGSGTDFTLKISRVEAEDVGVYYCAQGTSVPFTFGQGTKLEIK
8 | 0 | H183/L072 VH V95P (antibody, name in Kabat numbering, V domains shown) VH: QVQLVESGGGLVQPGRSLRLSCAASGFTFSNAWMHWVRQAPGKGLEWVAQIKDKGNAYAAYYAPSVKGRFTISRDDSKNSIYLQMNSLKTEDTAVYYCHYPHYASASTVLPAFGVDAWGQGTTVTVSS VL: DIVMTQSPLSLPVTPGEPASISCQASQELVHMNRNTYLHWYQQKPGQAPRLLIYKVSNRFPGVPDRFSGSGSGTDFTLKISRVEAEDVGVYYCAQGTSVPFTFGQGTKLEIK
9 | 1.2 | H183/L072 VH V100cM (antibody, name in Kabat numbering, V domains shown) VH: QVQLVESGGGLVQPGRSLRLSCAASGFTFSNAWMHWVRQAPGKGLEWVAQIKDKGNAYAAYYAPSVKGRFTISRDDSKNSIYLQMNSLKTEDTAVYYCHYVHYASASTMLPAFGVDAWGQGTTVTVSS VL: DIVMTQSPLSLPVTPGEPASISCQASQELVHMNRNTYLHWYQQKPGQAPRLLIYKVSNRFPGVPDRFSGSGSGTDFTLKISRVEAEDVGVYYCAQGTSVPFTFGQGTKLEIK
10 | 0 | H183/L072 VH V95L (antibody, name in Kabat numbering, V domains shown) VH: QVQLVESGGGLVQPGRSLRLSCAASGFTFSNAWMHWVRQAPGKGLEWVAQIKDKGNAYAAYYAPSVKGRFTISRDDSKNSIYLQMNSLKTEDTAVYYCHYLHYASASTVLPAFGVDAWGQGTTVTVSS VL: DIVMTQSPLSLPVTPGEPASISCQASQELVHMNRNTYLHWYQQKPGQAPRLLIYKVSNRFPGVPDRFSGSGSGTDFTLKISRVEAEDVGVYYCAQGTSVPFTFGQGTKLEIK
11 | 4.6 | H183/L072 VH V100iA (antibody, name in Kabat numbering, V domains shown) VH: QVQLVESGGGLVQPGRSLRLSCAASGFTFSNAWMHWVRQAPGKGLEWVAQIKDKGNAYAAYYAPSVKGRFTISRDDSKNSIYLQMNSLKTEDTAVYYCHYVHYASASTVLPAFGADAWGQGTTVTVSS VL: DIVMTQSPLSLPVTPGEPASISCQASQELVHMNRNTYLHWYQQKPGQAPRLLIYKVSNRFPGVPDRFSGSGSGTDFTLKISRVEAEDVGVYYCAQGTSVPFTFGQGTKLEIK
12 | 0 | H183/L072 VH V95A (antibody, name in Kabat numbering, V domains shown) VH: QVQLVESGGGLVQPGRSLRLSCAASGFTFSNAWMHWVRQAPGKGLEWVAQIKDKGNAYAAYYAPSVKGRFTISRDDSKNSIYLQMNSLKTEDTAVYYCHYAHYASASTVLPAFGVDAWGQGTTVTVSS VL: DIVMTQSPLSLPVTPGEPASISCQASQELVHMNRNTYLHWYQQKPGQAPRLLIYKVSNRFPGVPDRFSGSGSGTDFTLKISRVEAEDVGVYYCAQGTSVPFTFGQGTKLEIK
13 | 1.1 | H183/L072 VH V100cA (antibody, name in Kabat numbering, V domains shown) VH: QVQLVESGGGLVQPGRSLRLSCAASGFTFSNAWMHWVRQAPGKGLEWVAQIKDKGNAYAAYYAPSVKGRFTISRDDSKNSIYLQMNSLKTEDTAVYYCHYVHYASASTALPAFGVDAWGQGTTVTVSS VL: DIVMTQSPLSLPVTPGEPASISCQASQELVHMNRNTYLHWYQQKPGQAPRLLIYKVSNRFPGVPDRFSGSGSGTDFTLKISRVEAEDVGVYYCAQGTSVPFTFGQGTKLEIK
14 | 0.3 | H183/L072 VH V95M (antibody, name in Kabat numbering, V domains shown) VH: QVQLVESGGGLVQPGRSLRLSCAASGFTFSNAWMHWVRQAPGKGLEWVAQIKDKGNAYAAYYAPSVKGRFTISRDDSKNSIYLQMNSLKTEDTAVYYCHYMHYASASTVLPAFGVDAWGQGTTVTVSS VL: DIVMTQSPLSLPVTPGEPASISCQASQELVHMNRNTYLHWYQQKPGQAPRLLIYKVSNRFPGVPDRFSGSGSGTDFTLKISRVEAEDVGVYYCAQGTSVPFTFGQGTKLEIK
15 | 1.2 | H183/L072 VH V100cL (antibody, name in Kabat numbering, V domains shown) VH: QVQLVESGGGLVQPGRSLRLSCAASGFTFSNAWMHWVRQAPGKGLEWVAQIKDKGNAYAAYYAPSVKGRFTISRDDSKNSIYLQMNSLKTEDTAVYYCHYVHYASASTLLPAFGVDAWGQGTTVTVSS VL: DIVMTQSPLSLPVTPGEPASISCQASQELVHMNRNTYLHWYQQKPGQAPRLLIYKVSNRFPGVPDRFSGSGSGTDFTLKISRVEAEDVGVYYCAQGTSVPFTFGQGTKLEIK
